Literature values in paper PMC2945288.

Molecular target: coat protein (procapsid) (Salmonella phage P22) (UniProt P26747)
Chain of UniProt P26747 (P26747 2-430): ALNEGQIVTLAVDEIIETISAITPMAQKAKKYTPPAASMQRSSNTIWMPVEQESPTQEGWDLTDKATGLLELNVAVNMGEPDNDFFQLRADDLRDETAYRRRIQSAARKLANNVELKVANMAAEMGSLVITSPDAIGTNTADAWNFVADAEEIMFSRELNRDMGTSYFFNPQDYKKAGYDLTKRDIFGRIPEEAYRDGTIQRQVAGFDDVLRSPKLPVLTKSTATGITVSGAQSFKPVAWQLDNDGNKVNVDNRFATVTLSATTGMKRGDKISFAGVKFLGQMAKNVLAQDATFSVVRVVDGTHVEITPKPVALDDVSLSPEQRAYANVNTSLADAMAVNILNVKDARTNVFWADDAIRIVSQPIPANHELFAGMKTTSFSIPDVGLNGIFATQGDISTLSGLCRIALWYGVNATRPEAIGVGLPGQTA

## scaffolding protein (loosely bound) (from UniProt P26748)
  Kd: 28 µM
